Test results taken from patent US20160289698A1 (TRUSTEES OF DARTMOUTH COLLEGE, published 2016).

T1: ARR12 (Arabidopsis, UniProt P62598 1-596)
T1 construct: YFP^N or YFP^C fusion of the full-length cDNA in BiFC; also called AtARR12; type-B response regulator AtARR12
T1 sequence (looked up): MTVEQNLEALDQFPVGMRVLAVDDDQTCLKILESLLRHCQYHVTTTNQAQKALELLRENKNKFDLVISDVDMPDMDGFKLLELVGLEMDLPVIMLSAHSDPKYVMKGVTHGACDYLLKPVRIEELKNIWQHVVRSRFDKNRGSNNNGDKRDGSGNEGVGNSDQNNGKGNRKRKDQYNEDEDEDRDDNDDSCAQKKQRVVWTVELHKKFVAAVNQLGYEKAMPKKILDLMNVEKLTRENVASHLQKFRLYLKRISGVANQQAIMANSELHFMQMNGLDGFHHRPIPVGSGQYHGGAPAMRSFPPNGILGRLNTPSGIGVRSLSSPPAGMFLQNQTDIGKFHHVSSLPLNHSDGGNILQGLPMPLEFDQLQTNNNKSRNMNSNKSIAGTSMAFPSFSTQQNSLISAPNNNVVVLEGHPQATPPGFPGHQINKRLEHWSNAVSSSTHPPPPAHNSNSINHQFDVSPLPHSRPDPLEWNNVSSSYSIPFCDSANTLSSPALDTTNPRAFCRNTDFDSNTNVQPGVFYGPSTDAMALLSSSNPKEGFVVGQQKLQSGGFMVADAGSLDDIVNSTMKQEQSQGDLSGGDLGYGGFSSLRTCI

T2: ARR2 (Arabidopsis, UniProt Q9ZWJ9 1-664, limits assumed)
T2 construct: also called type-B response regulator ARR2
T2 sequence (looked up): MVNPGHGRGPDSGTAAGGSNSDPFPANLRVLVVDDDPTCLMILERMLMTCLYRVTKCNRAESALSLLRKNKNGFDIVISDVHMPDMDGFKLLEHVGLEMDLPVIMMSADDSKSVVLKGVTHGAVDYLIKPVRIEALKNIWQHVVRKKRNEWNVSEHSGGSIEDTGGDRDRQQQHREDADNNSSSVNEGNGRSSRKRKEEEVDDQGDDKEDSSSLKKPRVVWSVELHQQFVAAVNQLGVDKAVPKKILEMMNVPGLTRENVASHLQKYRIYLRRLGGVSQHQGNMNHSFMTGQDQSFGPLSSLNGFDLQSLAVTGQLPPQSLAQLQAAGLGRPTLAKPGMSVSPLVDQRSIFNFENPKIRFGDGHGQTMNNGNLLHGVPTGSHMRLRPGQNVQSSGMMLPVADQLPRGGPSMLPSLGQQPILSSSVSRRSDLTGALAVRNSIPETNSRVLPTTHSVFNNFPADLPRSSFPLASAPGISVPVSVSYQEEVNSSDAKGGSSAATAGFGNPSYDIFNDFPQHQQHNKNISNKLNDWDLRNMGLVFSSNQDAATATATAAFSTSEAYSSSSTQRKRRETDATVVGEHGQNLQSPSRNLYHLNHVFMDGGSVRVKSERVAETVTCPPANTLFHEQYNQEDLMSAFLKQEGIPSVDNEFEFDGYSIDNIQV

T3: ARR19 (subfamily-2) (Arabidopsis, UniProt Q9M9B9 1-407, limits assumed)
T3 sequence (looked up): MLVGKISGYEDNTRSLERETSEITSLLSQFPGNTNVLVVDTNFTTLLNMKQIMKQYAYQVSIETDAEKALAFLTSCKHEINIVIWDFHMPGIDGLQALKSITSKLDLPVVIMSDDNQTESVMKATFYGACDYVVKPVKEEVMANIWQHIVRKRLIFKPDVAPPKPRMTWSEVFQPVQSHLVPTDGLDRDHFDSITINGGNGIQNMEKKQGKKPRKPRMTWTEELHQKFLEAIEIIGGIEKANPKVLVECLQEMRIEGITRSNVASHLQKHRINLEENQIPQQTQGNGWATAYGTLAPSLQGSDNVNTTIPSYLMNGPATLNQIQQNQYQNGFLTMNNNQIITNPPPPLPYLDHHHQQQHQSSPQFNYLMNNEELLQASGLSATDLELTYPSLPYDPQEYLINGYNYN

T4: ARR21 (subfamily-3) (Arabidopsis, UniProt Q9LYP5 1-613, limits assumed)
T4 sequence (looked up): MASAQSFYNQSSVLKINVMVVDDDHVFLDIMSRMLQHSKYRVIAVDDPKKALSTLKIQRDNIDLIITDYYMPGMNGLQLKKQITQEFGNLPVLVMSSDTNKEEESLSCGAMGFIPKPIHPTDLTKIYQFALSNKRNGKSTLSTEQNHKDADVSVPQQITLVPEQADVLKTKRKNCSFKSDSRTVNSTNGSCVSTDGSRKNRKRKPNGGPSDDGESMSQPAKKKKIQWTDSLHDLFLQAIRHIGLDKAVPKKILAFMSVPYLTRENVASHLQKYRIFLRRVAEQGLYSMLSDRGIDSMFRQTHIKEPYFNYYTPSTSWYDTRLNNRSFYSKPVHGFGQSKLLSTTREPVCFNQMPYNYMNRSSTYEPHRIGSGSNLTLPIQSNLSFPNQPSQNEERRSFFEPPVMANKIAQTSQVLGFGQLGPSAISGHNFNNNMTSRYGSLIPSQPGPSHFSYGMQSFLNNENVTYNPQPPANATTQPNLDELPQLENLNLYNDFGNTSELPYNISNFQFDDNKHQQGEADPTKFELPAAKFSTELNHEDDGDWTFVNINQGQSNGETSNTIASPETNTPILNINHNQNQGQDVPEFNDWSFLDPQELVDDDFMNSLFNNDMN

B1: KISS ME DEADLY 1 (KMD1) (other, Arabidopsis, UniProt Q9M8L2 1-354, looked up)
chain: MELIPNLPDDVARECLLRSSYQQFPVIASVCRAWNREVSLSQFLHQRKASRHSQELLILSQARVDPAGSGKIIATPEYRISVLESGSGLWTELPPIPGQTKGLPLFCRLVSVGSDLIVLGGLDPITWQAHDSVFVFSFLTSKWRVGATMPGVRRSFFGCASDSDRTVLVAGGHNEEKCALTSAMVYDVSEDKWTFLPDMARERDECKAVFHAGRFHVIGGYATEEQGQFSKTAESFDVSTWEWGPLTEDFLDDTGDTVSPPTCVAGGDLYACWGGDVMMFLNDKWQKVGQIPADVYNVTYVAVRPGMLIVIGNGKALAGYGEATVGYICDLSSSRWVKLETHGGHVQAGCFLEV
notes: Full-length protein; also called At1g80440
B2: KISS ME DEADLY 2 (KMD2) (other, Arabidopsis, UniProt Q9LMR5 1-359, looked up)
chain: MELIPDLPETVAYECLLRSSYKQFPLMASVCKLWQREISLSDFFRHRKASGHSQELVVLSQARVDPVKELVSGNKTIPTPVYRISVLELGTGLRSELPPVPGHSNGLPLFCRLVSVGSDLVVLCGLDPVTWRTSDSVFVFSFLTSTWRVGKSMPGGPRSFFACASDSQRNVFVAGGHDEDKNAMMSALVYDVAEDRWAFLPDMGRERDECTAIFHAGKFHVIGGYSTEEQGQFSKTAESFDVTTWRWSPQGEEFLSSEMTMWPPICAAGENGDLYACCRRDLMMMKDDTWYKVGNLPADVCNVSYVAIRRSGNLVVIGSARYGEPSVGYNWDMSNSRWLKLETHDKYEGHVQAGCFLEI
notes: Full-length protein; LexA fusion in yeast two-hybrid, YFP^N or YFP^C fusion in BiFC; also called At1g15670

Key:
Assay in all cases: yeast two-hybrid (LexA-KMD bait, B42-ARR prey, X-gal)
[1] = target: T1, ARR12
Excerpt: (§1) The DUPLEX-A™ system (OriGene Technologies) was used for yeast two-hybrid analysis of interactions. KMD cDNAs were cloned into the pGilda bait vector, which produces an in-frame fusion with the LexA DNA-binding domain. Type-B ARR coding sequences were cloned into the pJG4-5 prey vector, which produces a B42 activation domain. The yeast strain EGY48 (MATa, trp1, his3, ura3, leu2::6 LexAop-LEU2) that contains the lacZ reporter plasmid pSH18-34 was transformed with the appropriate “bait” and “prey” plasmids. Interactions were tested on 5-bromo-4-chloro-3-indolyl-p-D-galactopyranoside (X-gal) medium (Ryu, et al. (2005) Cell 120(3): 395-406).
(§2) The KMD proteins also interacted with ARR20 (type-B ARR subfamily-3), but not with ARR19 (subfamily-2) and ARR21 (subfamily-3). […] All four KMD proteins interacted with both ARR1 and ARR12 in a BiFC assay. Strong fluorescence was detected in the nuclei of cells, consistent with the subcellular localization of the type-B ARRs (Hwang & Sheen J (2001) Nature 413(6854):383-389; Mason, et al. (2004) Plant Physiol. 135(2):927-937).

[2] = target: T2, ARR2
Excerpt: as §1, §2

[3] = target: T3, ARR19 (subfamily-2)
Excerpt: as §1, §2

[4] = target: T4, ARR21 (subfamily-3)
Excerpt: as §1, §2

Row | Binder | binding result [1] | binding result [2] | binding result [3] | binding result [4]
1 | B1 | binds | binds | no binding | no binding
2 | B2 | binds | binds | no binding | no binding
